The numbers were not newly measured in article PMC9783754, which cites them from elsewhere.

For this data set, the target named is S100A12 (Homo sapiens) (UniProt P80511).
Sequence of S100A12 (Homo sapiens) (P80511 2-92): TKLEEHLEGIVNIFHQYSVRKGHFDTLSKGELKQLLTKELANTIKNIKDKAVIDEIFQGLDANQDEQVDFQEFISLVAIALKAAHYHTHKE

Sequence of S100A12 (P80511 2-92): as above

One may read the Kd as the free concentration of one partner at which half of the binding sites on the other are occupied at equilibrium, for simple one-to-one binding. For S100A12 (from UniProt P80511), the equilibrium dissociation constant (Kd) is 160 µM.
